Three molecules from publication PMC3157396, “Molecular Basis for the Recognition of Adenomatous Polyposis Coli by the Discs Large 1 Protein” (PLoS ONE, 2011) can be followed below.

B2: PDZ2 domain of human DLG1 with the point mutation Q340P (domain or fragment, UniProt Q12959 315-410, looked up)
chain: EKIMEIKLIKGPKGLGFSIAGGVGNPHIPGDNSIYVTKIIEGGAAHKDGKLQIGDKLLAVNNVCLEEVTHEEAVTALKNTSDFVYLKVAKPTSMYM
notes: human DLG1 PDZ2 domain, residues 315-410, Q340P; also called PDZ2 Q340P; PDZ2-Q340P; source: E. coli BL21 (DE3), purified
B3: GST-tagged C-terminal 11 residues of human Adenomatous Polyposis Coli (APC), residues 2833–2843 (peptide)
chain: RHSGSYLVTSV
notes: human Adenomatous Polyposis Coli (APC), C-terminal 11 residues, 2833-2843 of the 2,843-residue protein; cloned into pGEX4T1; also called GST-APC-C11; APC-C11; not shown: GST, N-terminal, kept

The target in test [1] is B3. The test is described as follows: ITC; ITC200, 25°C, 50 mM HEPES pH 7.5, 100 mM NaCl; PDZ domain (400 µM) injected 20 times in 2 µl aliquots into 40 µM GST-tagged APC-C11 or APC-C4; single site binding model. Particulars: both partners purified. (In general: Isothermal titration calorimetry measures the heat released or taken up as one component is titrated into another.)

Test [2] deals with B2. The test is described as above. Particulars: both partners purified.

B1: PDZ2 domain of human Discs Large 1 (DLG1), residues 315–410 (domain or fragment, UniProt Q12959 315-410, looked up)
chain: EKIMEIKLIKGPKGLGFSIAGGVGNQHIPGDNSIYVTKIIEGGAAHKDGKLQIGDKLLAVNNVCLEEVTHEEAVTALKNTSDFVYLKVAKPTSMYM
notes: human Discs Large 1/Synapse Associated Protein 97 (DLG1), PDZ2 domain, residues 315-410; cloned into a pET28a-derived vector; also called WT PDZ2; second PDZ domain of DLG1; source: E. coli BL21 (DE3), purified (Ni2+-NTA, Superdex 200 gel filtration)
With B1, in test [1], the dH was -7.09 ± 0.19 kcal/mol and the stoichiometry N (in general, the number of molecules, sites or subunits per partner or assembly) was 0.916 ± 0.018. For B2, in that order: -6.76 ± 0.27 kcal/mol and 1.04 ± 0.03.

Take B3: the Kd – broadly, a measure of binding affinity in units of concentration – in test [2] was found to be 9.8 ± 1.11 µM.
